Experimental data as given in the RNAGym collection of RNA variant scans (doi:10.1073/pnas.2313332121).

B1: TPR t1 (parent)
chain: GACCAAUCUGCCCUCAGAGCUCGAGAACAUCUUCGGAUGCAGAGGAGGCAGGCUUCGGUGGCGCGAUAGCGCCAACGUCCUCAACCUCCAAUGCAUCCCACCACAUGAUGAUGCCUGAAGAGCCUUGGUUUUUUG

Variants of: B1
Test: polymerase ribozyme fitness, log enrichment relative to wild type (log ratio); higher = more active; in vitro selection for triplet polymerase activity
Outline: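 PCR was used to build mutant libraries for each subunit of a heterodimeric triplet polymerase ribozyme, which were then transcribed. A single in vitro selection round, in triplicate, used a frozen incubation at −7 °C and recovered extended constructs by gel excision, streptavidin beads and RT-PCR. Fitness is the logarithm of genotype enrichment relative to wild-type enrichment, averaged over replicates with inverse-variance weights. The logarithm is base 2, and after Illumina sequencing only genotypes with ≥10 input reads and ≥1 read per output were kept.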

Row | Variant | polymerase ribozyme fitness (log ratio)
1 | C31G U112A | -5.33
2 | A29U G42C G69U A119U | -2.46
3 | A29U G61C | -2.79
4 | A29G G52U | -1.55
5 | U33A G120U | -5.15
6 | C31U C70A G113A C123G C124A | -7.42
7 | C31G C53A G71U G107C | -1.67
8 | C28G U54A G122U | -2.85
9 | U33A G36C C72U | -4.02
10 | A29U A46C G48A A84C | -3.31
11 | C28U C70A | -4.5
12 | C28U G61A | -1.12
13 | C28U G61C | -4.7
14 | C31G C70U C82G G117C | -7.1
15 | U30C A50C | -2.91
16 | C28U U112C U116A | -1.82
17 | A29U G69U C123A | -0.777
18 | C31G C62U C114G G127U | -6.54
19 | U32C G48A C102A C123U | -2.5
20 | C28U G63C | -3.08
21 | A29G A37G A84G G110U A121G | -3.06
22 | U33A G47A A121U | -3.55
23 | C31U G135U | -4.94
24 | C28U C80U A90G C124G | -0.852

Row | Variant | polymerase ribozyme fitness (log ratio)
25 | C28G C53U U67G C73G C98A C102A A111U C114G | -6
26 | C31U U78C | -5.28
27 | A29G A46U G69U C86U | -2.23
28 | A29U C53U C72G A83U U96A | -4.12
29 | A29G C62A | -2.33
30 | A29G U32A U55C | -5.1
31 | C31U G127C | -3.6
32 | A29G C31G G63A A100U A121C | -7.06
33 | A29U G45A G47U | -4.18
34 | C28U G52U C73G U78G G120U | -4.03
35 | C28U G71U | -2.6
36 | C31A A37G C80G C86U U92C A105U A111U | -7.03
37 | C28U G52U G120C | -2.81
38 | A29G G69C G120A | -2.54
39 | A29G C102A | -4.16
40 | C28U A41U G48A | -5.18
41 | U32A G48A C62U C97U A100U | -7.37
42 | A29C C40U A41U C124U | -3.03
43 | C28U G39C C56G C104U | -5.32
44 | U30A G110U | -4.94
45 | A29U A119G | -0.662
46 | U32G A37G A74G A111U U133C | -5.3
47 | A29U U38G G45U G120A U129A | -4.85
48 | A29G G47C C53A U59A | -2.24

Row | Variant | polymerase ribozyme fitness (log ratio)
49 | C28U G52C C56G G120A | -2.52
50 | A29G C56G A91C U112A A121G G122C | -2.1
51 | U32A A74C C114G | -4.4
52 | A29U C53A U129G | -2.03
53 | A29U A46G C115G | -2.96
54 | A29U A46C | -3.27
55 | U32C A41U G45C C115G | -5.44
56 | C31G G36U G44A A74U A108U U112G | -7.74
57 | C31U A37G C115A | -4.73
58 | C28U G60C | -3.11
59 | C28U C115U | -3.6
60 | C31A G61A C88U | -5.76
61 | U32C G117U | -2.41
62 | A29G C49U A119U G120A C123A | -2.51
63 | C31G C34U G69U U78C C86U C101A G113U | -7.18
64 | U32A G61U | -2.74
65 | C28G C40U G57U G63C | -4.66
66 | C28G G93A | -3.77
67 | C31U G36U G60C C73U C123U | -4.81
68 | C31U C49A C123U C124U | -4.12
69 | U33A C104U U112A | -3.5
70 | U30C G61C C72U A95U | -4
71 | U30C C56U | -2.08
72 | A29U A83U C86A C114A A118U | -3.87

Row | Variant | polymerase ribozyme fitness (log ratio)
73 | A29U C53U C56U G69U G93C | -3.98
74 | U30C G45U | -4.52
75 | C28U C101G | -5.15
76 | C28U G47C C73A C97U | -3.8
77 | U30C C62U U78A U106C A121U | -3.04
78 | A29G A66G | -1.88
79 | U30A G48C G57A C124G | -4.73
80 | C31U G60U | -4.38
81 | A29U A41C | -2
82 | A29U G71A G135C | -2.1
83 | C31G U33A G48U C49U C72G A108U G120U | -8.14
84 | C28U C80A | -5.53
85 | U30C G69A | -4.88
86 | U32C C40A | -0.464
87 | U30C G61A C79G | -4.69
88 | U32C G42A G69U | -0.00577
89 | U32A A46U U54A G57C G58C C70U A121G | -6.21
90 | A29G G47A U55A C56G | -2.62
91 | U32C U87A | -0.0352
92 | C28U G57U C86A A90G G93U U96G G113C A121U | -7.69
93 | U32C A74G G128C | -2.08
94 | C31U G71U C124G | -3.59
95 | C31U C89U U96A U106G U112A U130C | -4.19
96 | A29G G71A | -1.75

Row | Variant | polymerase ribozyme fitness (log ratio)
97 | A29U C56G G58C G77A C88U G120C C123G U129A | -5.14
98 | C31A A121U | -3.46
99 | A29C A46U U54G U78C G120U | -3.43
100 | U32G C70U | -7.16
101 | A29C G61U C70U A75G U78G | -3.77
102 | C31U C94A C114U | -5.92
103 | C28U C49A G61U C86U | -2.72
104 | A29U C72U C102U | -5.4
105 | A29U G58A U106A | -1.28
106 | A29G G61C | -2.51
107 | U32C G48U C56A G71U U112G | -4.24
108 | U32G A119U | -6.21
109 | A29U G93A | -2.13
110 | A29U A43C G44U C53G A111U U134A | -0.68
111 | A29U U54G | -2.02
112 | C28G G48U | -3.56
113 | C31A G45U C115G | -6.15
114 | A29G G63A | -1.9
115 | A29C A37G | -2.11
116 | A29G G58C | -1.5
117 | C31U G120C | -2.93
118 | U33A G52U U112A | -6.07
119 | A29G C40A A41U U92G | -4.59
120 | A29U G52C C73G U129A | -4.18

Row | Variant | polymerase ribozyme fitness (log ratio)
121 | C28U C64U G93U | -3.83
122 | C28U G39A | -2.12
123 | U32A A46C C64U U78G | -4.98
124 | C28U U32A C70U G120C | -6.64
125 | A29G C73U C114A | -1.97
126 | C28U U112A G122A U129A | -6.54
127 | U30A C104U A121C | -4.08
128 | U30G G48A C49U C62U C85A A121G | -6.22
129 | A29C A90G G113U C114U | -3.29
130 | C28U G45U C114U | -4.18
131 | A29G A37G C88U A111C | -0.788
132 | C28G G42C G52C G69U G107A A108G C124G | -7.26
133 | C28G G60U U130G | -2.82
134 | A29G C115U U126G | -3.15
135 | U32C C85G | -2.56
136 | A29G C49G G57C A121C | -0.725
137 | C28U G44U C49U G63C G110A | -2.74
138 | U33A G52U C115A | -4.73
139 | A29U G117C | -3.48
140 | A29U G61A C73U | -1.74
141 | U32C C56U | 0.1
142 | A29G C49A | -1.64
143 | A29U G48C | -2.86
144 | C31A C73G | -5.21

Row | Variant | polymerase ribozyme fitness (log ratio)
145 | A29U A84C U87C U112C | -0.813
146 | C28A U78C A91U U106A G110U | 0.263
147 | U32C A83G U87A U106A | -2.71
148 | A29C C62G | -4.52
149 | A29C A41G | -2.15
150 | A29G G63C C104U U106G | -1.63
151 | C31A C56A C98A | -5.09
152 | C31A G57A C73U | -6.14
153 | C31U C85G | -5.19
154 | U32A C40U U106A | -6.43
155 | A29G C56U | -1.17
156 | U30A G48C C124A | -5.2
157 | C31U U112A G113A | -4.76
158 | A29C C49U C72U | -4.03
159 | A29U G63A | -2.41
160 | C31U U96G | -5.37
161 | U30G A43C C101A U106C C115U U132A | -7.22
162 | C28U G71C U87G | -3.85
163 | U30C A41G | -3.33
164 | A29C C53G A111U | -1.63
165 | U33A C64A G69C | -5.43
166 | C31A G44U G69A A100C U109G G135U | -6.04
167 | C28G A83G U130C | -4.34
